# Earlier results as cited in article PMC4554539.
# Key:
# [1] = target: IL18 receptor (Homo sapiens) (UniProt Q13478); assay: binding to L428 cells
# [2] = target: IL18 receptor (Homo sapiens) (UniProt Q13478); assay: binding to transfected COS-1 cells
# Chain of IL18 receptor (Homo sapiens) (Q13478 19-541): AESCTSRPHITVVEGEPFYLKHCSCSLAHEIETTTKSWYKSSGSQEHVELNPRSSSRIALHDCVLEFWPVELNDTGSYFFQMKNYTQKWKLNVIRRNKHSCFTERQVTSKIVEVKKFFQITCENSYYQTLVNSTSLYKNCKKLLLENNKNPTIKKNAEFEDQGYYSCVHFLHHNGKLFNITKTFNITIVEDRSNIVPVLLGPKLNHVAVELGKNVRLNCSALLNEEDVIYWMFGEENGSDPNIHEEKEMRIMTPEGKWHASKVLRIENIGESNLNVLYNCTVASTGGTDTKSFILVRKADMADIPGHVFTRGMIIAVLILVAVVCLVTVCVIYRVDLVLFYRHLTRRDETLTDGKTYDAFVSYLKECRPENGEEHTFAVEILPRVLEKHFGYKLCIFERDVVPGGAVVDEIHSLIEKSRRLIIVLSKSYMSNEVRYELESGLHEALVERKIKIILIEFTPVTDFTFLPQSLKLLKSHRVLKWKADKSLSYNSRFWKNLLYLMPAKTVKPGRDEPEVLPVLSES
# Chain of IL18 (Q14116 37-193): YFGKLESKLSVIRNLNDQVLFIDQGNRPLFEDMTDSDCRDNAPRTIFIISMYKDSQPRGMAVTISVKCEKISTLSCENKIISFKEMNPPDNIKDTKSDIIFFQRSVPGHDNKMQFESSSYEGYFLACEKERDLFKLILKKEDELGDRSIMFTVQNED
substance,measurement,setting,value
IL18 (from UniProt Q14116),Kd,[1],18.5 nM
same,Kd,[2],46 nM
